Results taken from PMC11425205, “MdSINA2‐MdNAC104 Module Regulates Apple Alkaline Resistance by Affecting γ‐Aminobutyric Acid Synthesis and Transport”.
Substitutions are numbered along the chain they refer to.

B1: MdGAD1 probe 1 (dsDNA)
DNA 1: GCGCTGCACCTACACGTTCCATTTCTGGAC
DNA 2: GTCCAGAAATGGAACGTGTAGGTGCAGCGC
B2: MdALMT13 probe 4 (dsDNA)
DNA 1: ATGTATATATAAACACGATATCTCCCTTCC
DNA 2: GGAAGGGAGATATCGTGTTTATATATACAT
B3: MdGAD1 mutant probe 2 (dsDNA)
DNA 1: CAAACCATTTGCAAAATCCTTAAAGCGATT
DNA 2: AATCGCTTTAAGGATTTTGCAAATGGTTTG
B4: MdGAD1 mutant probe 1 (dsDNA)
DNA 1: B1 DNA 1 with C13A, C15A, G16A
DNA 2: B1 DNA 2 with C15T, G16T, G18T
B5: MdGAD1 probe 2 (dsDNA)
DNA 1: B3 DNA 1 with A13C, A15C, A16G
DNA 2: B3 DNA 2 with T15C, T16G, T18G
B6: MdALMT13 probe 3 (dsDNA)
DNA 1: CTTTTGCATTCAGCACGCACTCGCAAAACC
DNA 2: GGTTTTGCGAGTGCGTGCTGAATGCAAAAG
B7: MdGAD1 mutant probe 3 (dsDNA)
DNA 1: AAAAAATGGGGCAAAATGGGCTTCACTGTC
DNA 2: GACAGTGAAGCCCATTTTGCCCCATTTTTT
B8: MdGAD1 probe 3 (dsDNA)
DNA 1: B7 DNA 1 with A13C, A15C, A16G
DNA 2: B7 DNA 2 with T15C, T16G, T18G
B9: MdALMT13 probe 2 (dsDNA)
DNA 1: CTTATTTCAAAAACACGGGTGAACAGTAAA
DNA 2: TTTACTGTTCACCCGTGTTTTTGAAATAAG

Target: T1, MdNAC104 (Malus domestica (apple)?, UniProt D9ZJ88 1-204)
T1 sequence: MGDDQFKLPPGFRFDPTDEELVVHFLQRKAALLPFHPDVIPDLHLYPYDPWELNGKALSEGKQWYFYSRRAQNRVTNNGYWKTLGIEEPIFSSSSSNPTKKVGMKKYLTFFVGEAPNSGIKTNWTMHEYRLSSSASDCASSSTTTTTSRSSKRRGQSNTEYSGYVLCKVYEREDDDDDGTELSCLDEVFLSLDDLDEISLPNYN
Experiment: EMSA; LightShift Chemiluminescent EMSA Kit (Thermo) per manufacturer; buffer, salt, pH and temperature not stated
Conditions: protein: recombinant, tags: His (pET-32a vector), blunt

Binder	binding result (label: 5' biotin)	binding result
B1	binds	
B2	binds	
B3		no binding
B4		no binding
B5	binds	
B6	binds	
B7		no binding
B8	binds	
B9	binds	
